Results taken from the Human Domainome abundance scans (Beltran et al. 2025).
± gives the uncertainty stated by the source.

B1: Triacylglycerol hydrolase DDHD2, residues 389 to 447; numbered along this chain, O94830 (parent)
chain: TLEEDLKKLQLSEFFDIFEKEKVDKEALALCTDRDLQEIGIPLGPRKKILNYFSTRKNS

Variants of: B1
Assay: abundance fitness (aPCA) (normalised: wild type 0, dead -1); higher = more abundant; growth selection in yeast, the domain comes from the species named
Details: Homo sapiens

Abundance fitness, by site and new letter:
G44: K 0.18 ± 0.072 | L 0.1 ± 0.049 | S 0.167 ± 0.048 | P -0.079 ± 0.064 | Y -0.122 ± 0.054 | V 0.375 ± 0.049 | Q 0.333 ± 0.069 | A 0.35 ± 0.054 | H 0.101 ± 0.059 | C -0.176 ± 0.055
S54: N -0.152 ± 0.1 | M 0.17 ± 0.08 | Q 0.055 ± 0.098 | Y -0.443 ± 0.12 | R -0.122 ± 0.064 | P -0.309 ± 0.1 | C -0.285 ± 0.1 | K -0.071 ± 0.11
N58: V -0.015 ± 0.078 | E 0.078 ± 0.088 | L -0.116 ± 0.088
Q10: E 0.119 ± 0.061 | T -0.241 ± 0.08 | D 0.069 ± 0.099 | A -0.22 ± 0.05 | I -0.852 ± 0.34 | F -0.421 ± 0.13
D24: C -0.087 ± 0.16 | N 0.155 ± 0.12 | T 0.494 ± 0.11 | A 0.026 ± 0.1 | K -0.115 ± 0.097 | Q -0.044 ± 0.15
R56: S -0.027 ± 0.072 | E 0.123 ± 0.082 | K -0.143 ± 0.14 | G -0.105 ± 0.062 | P 0.084 ± 0.093 | W -0.1 ± 0.098 | M 0.095 ± 0.092
E3: N -0.354 ± 0.12 | Q -0.251 ± 0.078 | I -0.325 ± 0.14 | T -0.705 ± 0.089 | F -0.209 ± 0.1 | W -0.16 ± 0.059
K22: D 0.194 ± 0.11 | I -0.479 ± 0.11
A29: G -0.191 ± 0.074 | E 0.005 ± 0.11 | N 0.142 ± 0.099 | L -0.323 ± 0.071 | C -0.23 ± 0.086
E26: I -0.219 ± 0.16 | H 0.153 ± 0.13 | L -0.383 ± 0.071 | T -0.173 ± 0.11 | N -0.109 ± 0.15 | W -0.086 ± 0.084 | A -0.052 ± 0.086 | M -0.072 ± 0.11 | F -0.223 ± 0.14
E19: P -0.857 ± 0.12 | F -0.082 ± 0.11 | N -0.187 ± 0.12 | A -0.225 ± 0.069 | L 0.054 ± 0.062 | D 0.129 ± 0.1 | S -0.054 ± 0.067 | R -0.007 ± 0.062 | V 0.049 ± 0.065 | M 0.016 ± 0.1 | W -0.463 ± 0.092
K47: C 0.136 ± 0.081 | R -0.065 ± 0.064 | W -0.368 ± 0.098 | F -0.772 ± 0.16 | A 0.296 ± 0.067 | H -0.376 ± 0.11
L30: K 0.642 ± 0.083 | V 0.329 ± 0.075 | C 0.593 ± 0.078 | W 0.263 ± 0.081 | Q 0.238 ± 0.12
